Here are results for one substance from US20090181003.

In one data set the test system is T1, PDK1 (recombinant).
T1 sequence (O15530 1-556, species assumed, looked up): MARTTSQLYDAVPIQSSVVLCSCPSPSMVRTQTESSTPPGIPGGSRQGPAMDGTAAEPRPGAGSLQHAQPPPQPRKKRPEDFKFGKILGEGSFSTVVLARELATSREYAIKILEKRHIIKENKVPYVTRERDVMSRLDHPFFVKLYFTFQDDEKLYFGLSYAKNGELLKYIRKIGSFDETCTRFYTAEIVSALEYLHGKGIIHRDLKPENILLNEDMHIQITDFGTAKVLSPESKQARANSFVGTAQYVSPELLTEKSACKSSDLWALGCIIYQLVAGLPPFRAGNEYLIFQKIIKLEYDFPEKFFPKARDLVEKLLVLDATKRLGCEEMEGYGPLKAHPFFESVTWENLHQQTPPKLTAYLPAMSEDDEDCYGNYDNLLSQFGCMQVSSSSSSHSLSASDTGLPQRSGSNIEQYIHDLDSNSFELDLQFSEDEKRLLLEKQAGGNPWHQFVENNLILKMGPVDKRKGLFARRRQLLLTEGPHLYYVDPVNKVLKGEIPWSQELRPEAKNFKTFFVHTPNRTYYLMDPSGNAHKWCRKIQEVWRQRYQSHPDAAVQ

Data set [1] has as its system PI3-K (p85a/p110a complex).
Data set [2] concerns recombinant S6K1 (highly purified).
Data set [3] relates to recombinant S6K2 (highly purified).
Chain of recombinant S6K2 (highly purified) (chain, as listed by the source): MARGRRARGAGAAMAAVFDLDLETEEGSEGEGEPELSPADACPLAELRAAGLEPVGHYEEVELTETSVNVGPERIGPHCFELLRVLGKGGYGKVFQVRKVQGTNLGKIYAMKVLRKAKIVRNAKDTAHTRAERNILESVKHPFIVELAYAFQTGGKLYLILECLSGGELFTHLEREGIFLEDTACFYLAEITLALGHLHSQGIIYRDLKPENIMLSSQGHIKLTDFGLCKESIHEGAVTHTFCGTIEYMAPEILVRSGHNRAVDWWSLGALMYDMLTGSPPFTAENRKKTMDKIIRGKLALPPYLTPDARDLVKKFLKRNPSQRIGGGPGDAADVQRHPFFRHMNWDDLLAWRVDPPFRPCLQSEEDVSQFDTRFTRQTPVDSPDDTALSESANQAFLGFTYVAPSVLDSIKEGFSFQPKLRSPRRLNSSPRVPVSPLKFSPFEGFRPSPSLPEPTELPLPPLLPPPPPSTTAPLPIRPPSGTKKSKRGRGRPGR

Chain of PKB/Akt (recombinant) (P31749 whole entry): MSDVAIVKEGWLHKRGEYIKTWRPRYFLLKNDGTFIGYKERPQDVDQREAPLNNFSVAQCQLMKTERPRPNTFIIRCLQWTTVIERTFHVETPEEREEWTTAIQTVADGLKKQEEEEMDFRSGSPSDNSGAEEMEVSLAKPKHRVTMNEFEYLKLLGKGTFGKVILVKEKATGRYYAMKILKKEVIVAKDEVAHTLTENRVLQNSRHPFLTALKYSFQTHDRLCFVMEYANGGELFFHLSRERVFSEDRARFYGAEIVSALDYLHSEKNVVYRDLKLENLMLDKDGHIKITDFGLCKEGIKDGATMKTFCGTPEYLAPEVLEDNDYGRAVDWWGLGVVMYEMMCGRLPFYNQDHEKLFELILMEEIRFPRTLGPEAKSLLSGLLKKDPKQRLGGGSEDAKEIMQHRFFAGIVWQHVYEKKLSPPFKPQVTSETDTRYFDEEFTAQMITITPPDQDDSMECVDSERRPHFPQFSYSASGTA

Turning to full-length p300, the “in vitro acetylation by immunoprecipitated full-length p300” value in the data set with PDK1 (recombinant) was “no acetylation is observed for PKB/Akt, PDK1, PI3-K (p85a/p110a complex) under conditions used”; in data set [1], “no acetylation is observed for PKB/Akt, PDK1, PI3-K (p85a/p110a complex) under conditions used”; with PKB/Akt (recombinant), “no acetylation is observed for PKB/Akt, PDK1, PI3-K (p85a/p110a complex) under conditions used”; in the data set with PKCa (recombinant) it was “We detected weak, but reproducible acetylation of PKCa”; in data set [3] it was “S6K2 is acetylated in the presence of p300 and AcCoA”. Also, the “site of in vitro acetylation (MALDI tandem mass spectrometry of tryptic peptide 509Q-R522)” value in data set [2] is given as “this peptide was acetylated on the Lysine 516”. For the same substance, the “site of in vitro acetylation (MALDI mass spectrometry of Arg-C peptide 297 to 310)” value in data set [3] was “contains a lysine at position 2 (residue 298 in S6K2). This peptide was sequenced and the acetylated lysine was confirmed (data not shown)”.
